Reference: the nanobody polyreactivity screen of Harvey et al. (2022)

Test: yeast display, Sf9 membrane polyspecificity reagent, FACS + sequencing; frameworks hold sequencing errors
Method in brief: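 Using colony PCR, genes from sorted yeast display clones were amplified, then sequenced on MiSeq at 2 × 250 and filtered by CDR length. The clones had been stained with 10% biotinylated, detergent-solubilized Sf9 membrane reagent for 1 hour at 4 °C and sorted by FACS into low and high (top ~1%) gates on anti-HA and streptavidin fluorescence. Polyreactivity labels come from the gate of origin.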

Sequence | polyreactivity (PSR sort gate)
QVQLVESGGGLVQAGGSLRLSCAASGSTFYLNAMGWYRQEPGKERELVAAISSGGRTYYADSVKGRFTISRDNAKNTVYFQKNSLKPEDTAVYYCAATRLYWKIFYGDGDYWGQGTQVTVSS | high polyreactivity
QVQLVESGGGLVQAGGSLRLSCAASGSIFFDNAMGWYRQAPGKERELVAAIDSSGGSTYYADSVKGRFTISRDNAKNTVYLQMNSLKPEDTAVYYCAREQYVPSPYSFFDEFEYWGQGTQVTVSS | low polyreactivity
QDQLVESGGGLVQAGGSLRLSCAASGGIFKSNTMGWDRTAHGKERELVAAITYSDGGTYYADSVKGRFTISRDNAKNTVYLQMNSLTPEDTAVYYCAVDYDTFYWHHYPGEIDHWGQGTQVNVSS | low polyreactivity
QVQLVESGGGLVQAGGSLRLSCAASGYIFLRNALGWYRQAPGKERELVAAIRRTGGSTYYADSVKGRFTISRDNAKNTVYLQMNSLKPEDTAVYYCAKRSYTGYEYWGQGTQVTVSS | low polyreactivity
QVQLVESRGGLVQAGGSLRLSCAASGSIFRPYAMGWYRQAPGKERELVAAISSSGGSTYYADSVKGRFTISRDNAKNTVYLQMNSLKPEDTAVYYCAAESRSTWIHSRDYWGQGTQVTVSS | low polyreactivity
QVQLVESGGGLVQAGGSLRLSCAASGNTLDAYTMGWYRQAPGKERELVAAISRGGTRTYYADSVKGRFTISRDNAKNTVYLQMNSLKPEDTAVYYCNKVRDYSYDSWGQCTQVTVSS | high polyreactivity
QVQLVESGGGLVQAGGSLRLSCAASGSTVYRYTMGWYRQAPGKERELVAAISRSGGRTYYADSVKGRFTISRDNAKNTVYLQMNSMKPEDTAVDYCNAEIAASAVQAQEGEFWGQGTQVTVSS | high polyreactivity
QVQLVETGGGLVQAGGSLRLSCAPSGRTLTYYAMGWYRQAPGKERELVAAIRHSAGSTYYADSVKVRFTISRDNAKNSVYLLMNSLKPEVTAVYYCAKKYYGHRYPSIYDYWGQGTQVTVSS | high polyreactivity
QVQLVESGGGFVQAGGSLRLSCAASGRIFRIYAMGWYRQAPGKERELVAAITYRGGSTNYADSVKGRFTISRDNAKNTVYVQINSLKPEDTAVYDCAARSVYYGYTGYSYWGPGTQVTVSS | high polyreactivity
QVQLVESGGGLVQAGGSLRLSCAASRFYTMGWYRPAPGKERELVAAISWSGGDTYYADSVKGRYTISRDNAKNTVYLQMNSLKPEDPAVFYCNKDYSFEYSLRHRDYWGQGTQVTVSS | low polyreactivity
QVQLVESGVGLVQAGGSLRLSCAASGFIFYSYAMGWYRQAPGKERELVAAISRSGGITYYADSVKGRFTISRDNAKNTVYLQMNSLKPEDTAVYYCAKVGRGVSSIKDMDSWGQGTQVTVSS | high polyreactivity
QVQLVESGGGLVQAGGSLRLSCADSGRTFRRYKMGWYRQAPGKERELVATISSGGSTYADSVKGRFTISRDNAKNTVYLQMNSLKPEDTAVYYCAARYDVAWYSKRYSWGQGTQVTVSS | high polyreactivity
QVQLVESGGALVQAGGSLRLSCSASGSLFIYYAIRWYRQAPGKERELVAAISISGARTYYADSVKGRFTNSRDNAKNTVYLQMNSLKPEDTAVYYCNVSSRRLRGLDYWGQVTQVTVSS | low polyreactivity
QVQLVESGGGLVQAGGSLRLSCAASGLIFRPYTMGWYRPAPGKERELVATISGSGASTNYADSVKGRFTISRDNAKNTVYLQMNSLKPEDTAVYYCKGRSYSRMYYWGQGTQVTVSS | high polyreactivity
QVQLVESVVGLVQAGGSLRLSCAATGSIFRWYAMGWYRQAPGKERELVAAITWSASRTYYADSVKGRFTISRDNGKNTVYLQMNSLKPEDTAVYYCAADHDCPYAGYDSWGQGTQVTVSS | low polyreactivity
QVQLVESGGGLVQAGGSLRLSCAASGFTFSGNTMGWSRQAPGKERELVATISRTGGITYYADSVKGRFTISRDNAKNTVYLQMNSLKPEDTAVYYCNRRYYYFVYPDDYWGQGTQVTVSS | high polyreactivity
QVQLVESGGGLVQAGGSLRLSCAASGSIFYSNAMGWYRQAPGKERELVAAISDGGTSTYYADSVKGRFTISRDNAKNTVYLQMNSLKPEDTAVYYCAAESTLQDWNWYKYYYWGQGTQVTVSS | low polyreactivity
QVQLVESGGGLVQAVGSLRLSCAASGIIFRNYAMGWYRQAPGKEREWVAAISRSGGSTYYADSVKGRFTISRDNAKNTCYLQMNSLKPEDTAVYYCNAAYWAYNGFSYLMDYWGQGTQVTVSS | low polyreactivity
QVQLVESGGGLVQAGGSLRLSCAASGLTFYRNAMGRYRQAPGKERELVAAITASGGRTYYADSVKGRFTISRDNAKNTVYLQMNSLKPEVTAVYYCAADGKVQGGYYWGQGTQVTVSS | high polyreactivity
QVQLVESGGGLVQAGGSLRLSCAASGSTFAAYAAMGWYRQAPGKERELVAAISWNGGSTFYADSVKGRFTISRDNAKNTVYLQMNSLKPEDTAVYYCAVEYYWTLDFTFTFPLSYYWGQGSQVTVSS | low polyreactivity
QVQLVESGGGLVQAGGSLRLSCAASGFIFRYYDMGWYRQAPGKERELVAAISWSGCSTYYADSVKGRFTISRDNAKNTVYLQMNSLKPEYTAVYYCAAERYAMLFYAEDYWGQGTQVTVSS | low polyreactivity
QVQLVESGGGLVQAGGSLRLSCAASGRIFFSYAMGWYRQAPGKERELVAAINGRGGSTYYADSVKGRFTISRDNAKNTVYLQMNSLKPEDTAVYYCAATAFSKGSSWKPYYYWGQGTQVTVSS | low polyreactivity

Sequence | polyreactivity (PSR sort gate)
QVQLVESGGGLVQAGGSLRLSCAASGSTFQINAMGWYRQAPGKERELVAAIDGGGDTYYADSVKGRFTISRDNAKNTVYLQMNTLKPEDTAVYYCAAERRIYYQDFNYWGQGTQVTVSS | low polyreactivity
QVQLVESGGGLVQAGCSLRLSCAASGFIFVGKDMGWYRQAPGKERELVAAISSGGTTNYADSVKGRFTISRDNAKNTVYLQMNSLKPEDTAVYYCAADFDYRQGYDSFHLDYWGQGTQVTVSS | low polyreactivity
QVQLVESGGGLVQAGGSLRLSCAASGFIFQYNAMGWYRQAPGKERELVAAISKSGGRTYYADSVKGRFTISRDNPKNTVDLQMNSLKPEDTAVYYCAALYVWLWGYRFDYWGQGTQVTVSS | high polyreactivity
QVQLVESGGGLVQAGGSLRLSCAASGSILWSYAMGWYRQAPGKERELVAAISGSTGSTYYADSVKGRFTISRDNAKNTVYLQMNSLKPEDTAVYYCAAEYYEDYDDYDYWGQGTQVTVSS | low polyreactivity
QVQLVESGGGLVQAGGSLRLSCAASGFTFRKYAMGWYRPAPGKERELVAAITANGGRTYYADSVKGRFTISRDNAKNTVYLQMNSLKPEDTAVYYCARDWGKSEYDYWGQGTQVTVSS | high polyreactivity
QVQLVESRGGLVQAGVSLRLSCASSGRIVGWYAMGWYIQAPGKERELVAVITWSDGRTYYADSVKGRFTISRDNAKNTVYLQMNSLKPEDTAVFYCAAADWITEYDYWGQGTQVTVSS | low polyreactivity
QVQLVESGGGLVQAGGILLLSCAASGFIFWYYTMGWYKQAPGKERELVAAINSGGSTNYPDSVKGRFTSSRDNAKNTVYLQMNSLKPEDTAVYYCAALVWYSGELFYYWGQGTQVTVSS | low polyreactivity
QVQLVESGGGLVQAGGSLRLSCAASGRTFYSNARGWSRQAPGKERELVARISNGGSTHYADSVKGRFTISRDNAKNTVYLQMNSLKPEDTAVYYCNTDRGHFYTYPYTYYRLGYWGQGTQVTVSS | low polyreactivity
QVQLVETGGGLVQAGGSLRLSCAASGGIFSYAMVWYRQAPGKEMELVADINSDGSTTYADSVKGRFTISRDNAKNTVYLQMNRLKPEDTAVYFCAVDVSVNWPLLERYEYWGQGSQVTVSS | low polyreactivity
QVQLVESGGGLVQAGGSLRLSCAASGRIFLVYAMGGSRQAPGKDRELVAAISWSTGSTYYADSVKGRFTISRDNAKNTVYLQMNSLKPEDTAVYYCAAEPELDEYEHDYWGQGTQVTVSS | low polyreactivity
QVQLVESGGGLVQAGGSLRLSCAASGLTFPWYAMGWYRQAPGKERELVAGISWSGGSTYYADSVKGRFTISRDNAKNTVYLQMNSLKPEDTAVYYCAARVWYYDYWGQGTQVTVSS | high polyreactivity
QVQLVESGGGLVQAGGSLRLSFAASGSIINAYAMGWYRQAPGKERELVAAINSGGTTYYADSVKGRFTISRDNAKNTVYLQLNSLKPEDTAVYYCAKTRSYGRSGVSRRDGFYYWGQGTQVTVSS | high polyreactivity
QVQLVESGGGLVQAGGSLRLSCAASGRIFYSNAMGWYRQAPGKERELVAAITRSGGGTYYADSVKGRFTISRDNAKNTVYLQMNSLKPEDTAVYYCARPAFFRSLSTSDDYWGQGTQVTVSS | high polyreactivity
QVQLVESGGGLVQAGGSLRLSCAPSGSTFYYYAMGWYRQAPGKERELVAAITWSGGSTRYADSVKGRFTISRDNAKNTVYLQMKSLKPEDTAVYYCAAYYRKTGFEYWGQGSQVTVSS | high polyreactivity
QVHLVESWGGLVQAGGSLRLSCSASGITFDEYTIGWYRQAPGKERELVAAIDSDGSTTYADSVKVRFTISRDNAKNTVYLQMNILKPEDTEVYYCNAEHGDFCWHYLLYDYDYWGQGTQVTVSS | low polyreactivity
QVQLVESGGGLVQAGGSLRLSCAAYGSILGIYAMGGYRQAPGKERELVAAIRTSSASTYYADSVKGRFTISRDNAKNTVYLQMNSLKPEDSAVYYCAAYAFSYTPYYSWGQGTQVTVSS | high polyreactivity
QVQLVESGGGLVQAGGSLRLSCAASGSISGWYAMGWYRQAPGKERELVADISSIAGSTYYADCVKGRFTISRDNAKNTDSLQKNSLKPEDTAVYYGAADRGVDYEYDYWGQGTQVTVSS | low polyreactivity
QVQLEESGGGLVQPGGSLRLSCAASGIIFAYNAMGWNRQAPGKERELVATITDSGGTTSYADSVKGRFTISRDNAKNTVYLQMNRLKQEDTAVYYCAVLPVYWYWRNYVYLSGYDYWGQGTQVNVSS | low polyreactivity
QVQLVESGGGLVQAGGSLRLSCAASGSIIVRYAMGWYRQAPGKERELVAAISWSGGRTYYADSVKGRFTISRDNAKNTVYLQMNSLKPEDTAVYYCAADSSVRYRDTEDYWGQGTQVTVSS | low polyreactivity
QFQLVESGGGLVQAGGSLRLSCAASGSIFVTNAMGWYRQAPGKERELVAAISSGGNTNYADSVKGRFTISRDNAKNTVYLQMNSLKPEDTAVYYCAKDPDKVDFVDMDYWGQGTQVTVSS | low polyreactivity
QVPLVKSGAGFVQAGGILRLSCAASGRIFPFYVNGLARQAAGQERELVATINWSGGSTYYADSVKGRFTISRDNAKNTVYLQMNSLKPADTAVYYCAAAGIGGGGWGQGTQVTVSS | low polyreactivity
